# Laboratory results reported in US20090041767A1, “PHARMACEUTICAL COMBINATIONS” (priority 2007, published 2009).
# Biological target: mouse α5β1 (Mus musculus, UniProt P09055+P11688)
# Test: antibody binding to mouse α5β1 integrin
# Chain of mouse α5β1 (P11688 45-1053): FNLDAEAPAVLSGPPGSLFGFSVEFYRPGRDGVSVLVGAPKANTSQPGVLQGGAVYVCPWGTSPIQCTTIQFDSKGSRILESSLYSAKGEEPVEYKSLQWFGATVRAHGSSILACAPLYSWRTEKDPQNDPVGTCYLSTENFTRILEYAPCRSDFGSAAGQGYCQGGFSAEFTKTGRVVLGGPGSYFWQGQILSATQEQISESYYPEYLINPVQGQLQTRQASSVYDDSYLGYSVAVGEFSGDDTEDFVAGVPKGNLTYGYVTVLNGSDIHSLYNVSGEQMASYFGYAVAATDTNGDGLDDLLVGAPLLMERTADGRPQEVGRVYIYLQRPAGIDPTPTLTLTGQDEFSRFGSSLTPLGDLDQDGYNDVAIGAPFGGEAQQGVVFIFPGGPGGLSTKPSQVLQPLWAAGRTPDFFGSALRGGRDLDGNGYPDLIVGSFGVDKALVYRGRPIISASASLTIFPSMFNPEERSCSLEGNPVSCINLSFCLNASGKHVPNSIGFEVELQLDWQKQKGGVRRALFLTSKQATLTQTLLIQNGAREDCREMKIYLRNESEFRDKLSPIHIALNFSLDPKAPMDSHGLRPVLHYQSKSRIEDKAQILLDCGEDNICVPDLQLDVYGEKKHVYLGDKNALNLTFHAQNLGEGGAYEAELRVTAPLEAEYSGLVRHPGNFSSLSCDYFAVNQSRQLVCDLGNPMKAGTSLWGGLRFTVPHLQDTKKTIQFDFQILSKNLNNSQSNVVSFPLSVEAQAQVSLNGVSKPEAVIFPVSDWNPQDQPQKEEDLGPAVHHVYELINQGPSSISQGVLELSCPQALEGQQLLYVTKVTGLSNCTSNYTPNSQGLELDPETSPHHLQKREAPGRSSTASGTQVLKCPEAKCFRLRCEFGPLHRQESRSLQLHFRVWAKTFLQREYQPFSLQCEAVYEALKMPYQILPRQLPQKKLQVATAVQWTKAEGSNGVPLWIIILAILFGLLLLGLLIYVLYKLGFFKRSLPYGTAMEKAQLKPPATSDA
# Chain of mouse α5β1 (P09055 21-798): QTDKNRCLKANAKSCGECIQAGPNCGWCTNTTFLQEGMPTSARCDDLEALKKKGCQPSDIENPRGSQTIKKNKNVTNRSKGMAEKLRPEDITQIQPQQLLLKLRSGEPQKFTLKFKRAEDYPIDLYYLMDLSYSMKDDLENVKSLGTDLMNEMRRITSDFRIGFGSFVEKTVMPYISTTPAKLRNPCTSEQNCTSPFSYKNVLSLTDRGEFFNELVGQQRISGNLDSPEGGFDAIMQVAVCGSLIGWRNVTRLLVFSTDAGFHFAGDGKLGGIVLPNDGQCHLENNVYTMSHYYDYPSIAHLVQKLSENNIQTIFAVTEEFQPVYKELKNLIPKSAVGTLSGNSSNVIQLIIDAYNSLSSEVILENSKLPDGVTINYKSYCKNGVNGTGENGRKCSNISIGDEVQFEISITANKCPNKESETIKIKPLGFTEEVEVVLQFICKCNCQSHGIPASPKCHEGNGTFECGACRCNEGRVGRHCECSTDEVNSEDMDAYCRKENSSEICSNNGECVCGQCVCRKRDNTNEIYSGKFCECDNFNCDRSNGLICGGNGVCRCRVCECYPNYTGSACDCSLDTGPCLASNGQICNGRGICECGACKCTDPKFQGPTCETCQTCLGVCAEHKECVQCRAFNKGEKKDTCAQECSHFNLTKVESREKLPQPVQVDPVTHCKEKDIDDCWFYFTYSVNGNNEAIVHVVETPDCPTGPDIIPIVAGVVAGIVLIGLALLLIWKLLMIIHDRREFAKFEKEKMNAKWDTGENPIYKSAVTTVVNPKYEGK
molecule,measurement,value
"339.1: monoclonal antibody that targets murine α5β1; volociximab surrogate; VH SEQ ID NO: 22, VL SEQ ID NO: 23 (antibody, V domains shown, heavy chain variable region for mouse volociximab analog; light chain variable region for mouse volociximab analog) VH: MDIRLSLAFLVLFIKGVQCEVYLVESGGGSVQPGRSTKLSCAASEFTFSTSSMAWVRQAPTKGLEWVATISSSGEYTYYRDSVKGRFTISRDNAKSTLYLQMNSLRSEDTATYYCTRGVLYWGQGVMVTVSS VL: MAPVQLLGLLLLCLPAMRCDIQMTQSPSLLSASVGDRVTLNCKSSQNIYKNLNWYQQKLGEPPKLLIHYTDNLQAGIPSRFSGSGSGTDYTLTISSLHPDDVATYFCFQYNRGPTFGAGTKLELK",binding to mouse α5β1,binds mouse α5β1 with high affinity
